Laboratory results taken from patent US20250049935, “BOTTLEBRUSH CONJUGATES FOR USE AS OLIGONUCLEOTIDE ENHANCERS” (Northeastern University, published 2025).

Biological target: alpha thrombin (Homo sapiens, UniProt P00734;P00734 P00734:328-363,P00734:364-622)
Assay: MST; 20 mM HEPES pH 7.4, 150 mM NaCl, 2 mM CaCl2, 0.05% Tween; 10 nM thrombin

B1: HD1 (structured_DNA)
DNA: GGTTGGTGTGGTTGG
Question: Which Kd does the source give for B1 here?
Answer: The Kd was 5.4 nM.
